Test results as given in IntAct's records for PubMed 23900285.

B1: Peroxisomal biogenesis factor 3 (Saccharomyces cerevisiae), P28795 (parent)
chain: MAPNQRSRSLLQRHRGKVLISLTGIAALFTTGSVVVFFVKRWLYKQQLRITEQHFIKEQIKRRFEQTQEDSLYTIYELLPVWRMVLNENDLNLDSIVTQLKDQKNQLTRAKSSESRESSPLKSKAELWNELELKSLIKLVTVTYTVSSLILLTRLQLNILTRNEYLDSAIKLTMQQENCNKLQNRFYNWVTSWWSDPEDKADDAMVMAAKKSKKEGQEVYINEQAFLSLSWWILNKGWLSYNEIITNQIEIEFDGIHPRDTLTLEEFSSRLTNIFRNTNSQIFQQNNNNLTSILLPKDSSGQEFLLSQTLDADALTSFHSNTLVFNQLVNELTQCIESTATSIVLESLINESFHFIMNKVGIKTIAKKKPGQEDQQQYQMAVFAMSMKDCCQEMLQTTAGSSHSGSVNEYLATLDSVQPLDDLSASVYSNFGVSSSFSFKP
partner: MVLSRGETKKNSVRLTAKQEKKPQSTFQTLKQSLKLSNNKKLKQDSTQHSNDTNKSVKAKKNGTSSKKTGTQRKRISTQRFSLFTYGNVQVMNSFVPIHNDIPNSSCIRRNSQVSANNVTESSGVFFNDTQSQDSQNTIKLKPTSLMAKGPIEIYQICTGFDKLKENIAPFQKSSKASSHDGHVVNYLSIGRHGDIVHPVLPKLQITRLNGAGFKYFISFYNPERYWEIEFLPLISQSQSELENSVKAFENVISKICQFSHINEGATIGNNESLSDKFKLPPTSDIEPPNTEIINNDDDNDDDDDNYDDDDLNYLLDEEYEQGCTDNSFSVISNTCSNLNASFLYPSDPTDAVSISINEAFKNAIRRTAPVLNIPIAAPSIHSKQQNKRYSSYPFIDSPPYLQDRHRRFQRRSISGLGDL

Variants of: B1
Settings: with inp1_yeast INP1, Q03694
For V81E, the “effect of a mutation on the interaction” value was “disrupting interaction”.

Variants of: B1
Settings: with inp1_yeast INP1, Q03694
Remark: another data set of the same source
In the case of N188I, the “effect of a mutation on the interaction” value is reported as “decreasing interaction”.
